For the assay, the system named is target antigen-expressing cell line. The assay is described as follows: Jurkat NFAT-GFP assay, coculture with target cell lines expressing the respective target antigen (summary Table 10A). The class given is cell-based, human. Also on record: key: The signs +/−, +, 2+ etc. after the name of the cell lines indicate the relative degree of positivity on the Jurkat-NFAT-GFP assay as measured by the % GFP positive cells; +: relative degree of positivity on the Jurkat-NFAT-GFP assay as measured by the % GFP positive cells; 2+: relative degree of positivity on the Jurkat-NFAT-GFP assay as measured by the % GFP positive cells. Conditions: relative % GFP positive cells; for NFAT-GFP ASSAY Positive Cell lines: NALM6: SIR-expressing Jurkat-NFAT-GFP cells cocultured with NALM6; for NFAT-GFP ASSAY Positive Cell lines: RAJI: SIR-expressing Jurkat-NFAT-GFP cells cocultured with RAJI. The essentials:
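Coculture of SIR-bearing Jurkat NFAT-GFP reporters with target cells, ~1:2 E:T, ~4–18 h. FACS quantified % GFP+ cells, ranked semi-quantitatively against parental Jurkat-NFAT-GFP.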

B1: 102116-D01 (protein)
chain: MALPVTALLLPLALLLHAARPLEGKPIPNPLLGLDSTGSGEDLKNVFPPEVAVFEPSKAEIAHTQKATLVCLATGFYPDHVELSWWVNGKEVHSGVCTDPQPLKEQPALNDSRYCLSSRLRVSATFWQNPRNHFRCQVQFYGLSENDEWTQDRAKPVTQIVSAEAWGRADCGITSASYHQGVLSATILYEILLGKATLYAVLVSALVLMAMVKRKDSRGRAKRSGSGATNFSLLKQAGDVEENPGPTSTMALPVTALLLPLALLLHAARPQAVLTQPPSASGTPGQRVTISCSGSSSNIGSYTVSWYQQLPGTAPKFLIYSNNQRPSGVPDRFSGSKSGTSASLAISGLQSEDEADYYCAAWDDSLNGYVFGTGTKVTVLGGGGGSGGGGSGGGGSEVQLVQSGAEVKKPGESLKISCKGSGYDFTTYWIGWVRQMPGKGLEWMGIIYPGDSDTRYSPSVRGRVTISADKSINTAYLQWSSLEASDTAMYYCARMWTFSQDGWGQGTLVTVSSTREQKLISEEDGSGIQNPDPAVYQLRDSKSSDKSVCLFTDFDSQTNVSQSKDSDVYITDKCVLDMRSMDFKSNSAVAWSNKSDFACANAFNNSIIPEDTFFPSSDVPCDVKLVEKSFETDTNLNFQNLSVIGFRILLLKVAGFNLLMTLRLWSSRAKRSGSGVKQTLNFDLLKLAGDVESNPGPSRGHMTEYKPTVRLATRDDVPRAVRTLAAAFADYPATRHTVDPDRHIERVTELQELFLTRVGLDIGKVWVADDGAAVAVWTTPESVEAGAVFAEIGPRMAELSGSRLAAQQQMEGLLAPHRPKEPAWFLATVGVSPDHQGKGLGSAVVLPGVEAAERAGVPAFLETSAPRNLPFYERLGFTVTADVEVPEGPRTWCMTRKPGA
modifications: Synthetic Immune Receptor (SIR)
Turning to B1, the “NFAT-GFP ASSAY Positive Cell lines: L363” value (SIR-expressing Jurkat-NFAT-GFP cells cocultured with L363) is on record as “L363 (2+), U266”. Moreover, the “NFAT-GFP ASSAY Positive Cell lines: U266” value (SIR-expressing Jurkat-NFAT-GFP cells cocultured with U266) is “(2+)”.

B2: 110217-B04 (protein)
chain: MALPVTALLLPLALLLHAARPDVVMTQSPSSLSASVGDRVTITCRASQDISKYLNWYQQKPGKAPKLLIYHTSRLHSGVPSRFSGSGSGTDFTLTISSLQPEDFATYYCQQGNTLPYTFGGGTKVEIKLEDLKNVFPPEVAVFEPSEAEISHTQKATLVCLATGFYPDHVELSWWVNGKEVHSGVSTCPQPLKEQPALNDSRYCLSSRLRVSATFWQNPRNHFRCQVQFYGLSENDEWTQDRAKPVTQIVSAEAWGRADCGFTSESYQQGVLSATILYEILLGKATLYAVLVSALVLMAMVKRKDSRGRAKRSGSGATNFSLLKQAGDVEENPGPTSMDWIWRILFLVGAATGAHSFEQVQLQESGPGLVKPSQTLSLTCTVSGVSLPDYGVSWIRQPPGKGLEWIGVIWGSETTYYNSALKSRVLISVDTSKNQVSLKLSSVTAADTAVYYCARHYYYGGSYAMDYWGQGTTVTVSSTRIQNPDPAVYQLRDSKSSDKSVCLFTDFDSQTNVSQSKDSDVYICDKTVLDMRSMDFKSNSAVAWSNKSDFACANAFNNSIIPEDTFFPSPESSCDVKLVEKSFETDTNLNFQNLSVIGFRILLLKVAGFNLLMTLRLWSS
For the molecule B2, the “NFAT-GFP ASSAY Positive Cell lines: NALM6” value is recorded as “(+/−)” and the “NFAT-GFP ASSAY Positive Cell lines: RAJI” value was “RAJI (+/−), NALM6”.

B3: 110217-C03 (protein)
chain: MALPVTALLLPLALLLHAARPDVVMTQSPSSLSASVGDRVTITCRASQDISKYLNWYQQKPGKAPKLLIYHTSRLHSGVPSRFSGSGSGTDFTLTISSLQPEDFATYYCQQGNTLPYTFGGGTKVEIKLEDLKNVFPPEVAVFEPSEAEISHTQKATLVCLATGFYPDHVELSWWVNGKEVHSGVSTDPQPLKEQPALNDSRYCLCSRLRVSATFWQNPRNHFRCQVQFYGLSENDEWTQDRAKPVTQIVSAEAWGRADCGFTSESYQQGVLSATILYEILLGKATLYAVLVSALVLMAMVKRKDSRGRAKRSGSGATNFSLLKQAGDVEENPGPTSMDWIWRILFLVGAATGAHSFEQVQLQESGPGLVKPSQTLSLTCTVSGVSLPDYGVSWIRQPPGKGLEWIGVIWGSETTYYNSALKSRVLISVDTSKNQVSLKLSSVTAADTAVYYCARHYYYGGSYAMDYWGQGTTVTVSSTRIQNPDPAVYQLRDSKSSDKSVCLFTDFDSQTNVSQSKDSDVYICDKTVLDMRSMDFKSNSAVAWSNKSDFACANAFNNSIIPEDTFFPSPESSCDVKLVEKSFETDTNLNFQNLSVIGFRILLLKVAGFNLLMTLRLWSS
For B3, the “NFAT-GFP ASSAY Positive Cell lines: NALM6” value is listed as “(+/−)” and the “NFAT-GFP ASSAY Positive Cell lines: RAJI” value was “RAJI (+/−), NALM6”.

Values taken from patent US12269859B2, “Synthetic immune receptors and methods of use thereof” (Angeles Therapeutics, Inc., priority 2016, dated 2025).
